Results published in patent publication US20050244864A1, “Development and use of fluorescent probes of unbound analytes” (priority 2004, published 2005).

What was measured:
[1] = Probe calibration: binding affinities for fatty acids
Description: In a preferred embodiment, the template FABP is recombinant rat intestinal fatty acid binding protein (rI-FABP). Derivatization with acrylodan is performed using known methods substantially as previously described (U.S. Pat. No. 5,470,714 & Richieri, G. V, et al., J. Biol. Chem., (1992) 276: 23495-23501), and the resulting probe (ADIFAB) is commercially available (FFA Sciences LLC, San Diego, Calif.). […] The wavelength emitted by the fluorescently-labeled FABP depends upon the label and protein used. In an alternate preferred embodiment, the template protein is rI-FABP that has Ala substituted for Leu at position 72 (rI-FABP-L72A) with the resulting probe named ADIFAB2. […] Experiments typically involve measuring the fluorescence response within both emission maxima or at wavelengths for which the effect of interfering molecules such as hemoglobin can be eliminated as described in (U.S. application Ser. No. 10/670,958 and PCT/US2004/030521) and the calculation of the ratio ‘R’ of the two fluorescence intensities. The baseline value for this ratio, measured in the absence of analyte, is designated R0.
For each probe considered to have a useful phenotype, the sequence is determined, milligram quantities of the probe are prepared and the probe is calibrated. […] Spectra of probes were analyzed for true ratio behavior. […]

[2] = Screening of FFA-insensitive probes for response to UCB:BSA complexes (ΔI/Io); assay type: binding; conditions: fractional change in fluorescence intensity
Description: A probe for unbound unconjugated bilirubin (UCBu) was developed and used to measure concentrations of UCBu in plasma spiked with a defined quantity of unconjugated bilirubin (UCB). Using 384-well plates, 335 mutant probes that were insensitive to FFA were screened for their response to UCB:BSA complexes at UCB:BSA ratios of 1:1 and 1:2 in aqueous buffer. All probes were prepared from rI-FABP-L72A with 1 to 5 mutations. Screening was conducted by comparing the fractional change in fluorescence intensity (ΔI/Io, where ΔI is the difference in probe intensity in the presence and absence of UCB and Io is the intensity in the absence of UCB) for the probes with that for ADIFAB2. This value was calculated for two emission wavelengths: 440 and 500 nm. […] The emitted fluorescence of these probes is quenched by binding of UCB.

B1: ADIFAB2: rI-FABP with Ala substituted for Leu at position 72 (rI-FABP-L72A), derivatized with acrylodan; reference probe (protein, UniProt P02693 2-132, looked up, variant L72A)
Fatty acid-binding protein, …: AFDGTWKVDRNENYEKFMEKMGINVVKRKLGAHDNLKLTITQEGNKFTVKESSNFRNIDVVFELGVDFAYSAADGTELTGTWTMEGNKLVGKFKRVDNGKELIAVREISGNELIQTYTYEGVEAKRIFKKE
modifications: acrylodan label
binding affinities relative to ADIFAB [1]: about 10 fold | ΔI/Io 1:1 UCB:BSA 440 nm ([2]; UCB:BSA 1:1, emission 440 nm): −0.40 | ΔI/Io 1:1 UCB:BSA 500 nm ([2]; UCB:BSA 1:1, emission 500 nm): −0.34 | ΔI/Io 1:2 UCB:BSA 440 nm ([2]; UCB:BSA 1:2, emission 440 nm): −0.19 | ΔI/Io 1:2 UCB:BSA 500 nm ([2]; UCB:BSA 1:2, emission 500 nm): −0.16
